In the data set the test system is FgU2AF23-His;GST-FgRbp1 (Fusarium graminearum PH-1;Fusarium graminearum PH-1). The experiment in a line: pull-down. The following applies: scale: fold FgU2AF23-His bound vs FgU2AF23 alone.

With FgRPS20 exon1-intron1-exon2 RNA, the binding signal was found to be 1.6.

Source of the values: PMC8113354.
